Laboratory results: patent CN114397452A (dated 2022)

B1: IMCAS-364 scFv (scFv, V domains shown)
VH: QVQLQESGGGVVQPGRSLRLSCAASGFTFSRYGMHWVRQAPGKGLEWVAVIWYDGSNKYYADSVKGRFTISRDNSKNTLYLQMNSLRADDTAVYYCAKQEGTYCSGGSCYSGLDYWGQGTLVTVSS
VL: not shown
B2: IMCAS-72 scFv (scFv, V domains shown)
VH: QVQLVESGGGLVQPGGSLRLSCAASGFTFSSYGMHWVRQAPGKGLEWVAVISYDGSDKYYADSVKGRFTISRDNSKNTLYLQMNSLRAEDTAVYYCARDRDRFGDQGGWFDPWGQGTLVTVSS
VL: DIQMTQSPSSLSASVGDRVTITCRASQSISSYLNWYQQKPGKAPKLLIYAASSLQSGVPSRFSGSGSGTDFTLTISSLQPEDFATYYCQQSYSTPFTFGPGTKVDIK

Legend:
SARS-CoV RBD蛋白 = SARS-CoV RBD蛋白 (SARS-CoV, UniProt P59594 306-527)
冠状病毒RaTG13 RBD蛋白 = 冠状病毒RaTG13 RBD蛋白 (coronavirus RaTG13)

Row | Binder | Kd (SARS-CoV RBD蛋白) | Kd (冠状病毒RaTG13 RBD蛋白)
1 | B1 | 8.17 nM | –
2 | B2 | – | 6.21 nM
